Experimental data published in US20260209386A1 (MYTHIC THERAPEUTICS, published 2026).
Substitutions are numbered along the chain they refer to.

T1: Human PTK7 Protein, His Tag (Acro Biosystems) (human, UniProt Q13308 31-704)
T1 construct: Bought recombinant protein; also called CCK4; tyrosine-protein kinase-like 7; not shown: His tag
T1 sequence: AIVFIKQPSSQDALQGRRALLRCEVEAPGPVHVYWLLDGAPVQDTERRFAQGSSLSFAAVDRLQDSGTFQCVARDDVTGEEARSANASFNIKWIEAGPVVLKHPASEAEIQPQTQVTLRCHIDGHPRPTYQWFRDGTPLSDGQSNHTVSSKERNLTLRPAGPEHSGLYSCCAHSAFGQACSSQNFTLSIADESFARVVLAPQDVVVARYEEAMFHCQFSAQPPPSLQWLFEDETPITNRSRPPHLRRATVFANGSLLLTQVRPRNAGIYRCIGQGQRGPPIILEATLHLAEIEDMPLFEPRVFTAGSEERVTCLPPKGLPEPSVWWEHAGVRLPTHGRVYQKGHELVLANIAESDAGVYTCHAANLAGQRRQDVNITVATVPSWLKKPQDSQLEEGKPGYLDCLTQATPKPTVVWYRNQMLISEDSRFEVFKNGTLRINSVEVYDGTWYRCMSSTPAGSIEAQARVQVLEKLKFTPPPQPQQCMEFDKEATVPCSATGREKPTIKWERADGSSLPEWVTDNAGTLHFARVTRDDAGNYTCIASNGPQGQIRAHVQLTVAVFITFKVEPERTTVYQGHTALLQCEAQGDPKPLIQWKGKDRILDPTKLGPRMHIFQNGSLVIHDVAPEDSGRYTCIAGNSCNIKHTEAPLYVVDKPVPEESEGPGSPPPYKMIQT

T2: Human PTK7 Protein, His Tag, Acro Biosystems (human, UniProt Q13308 31-704)
T2 construct: Bought recombinant protein; also called CCK4; not shown: His tag
T2 sequence: T1 sequence

B1: MYT11347 (antibody, V domains shown)
VH: EVQLVESGGGLVQPGGSLRLSCTASGIDLSNYAHIWVRQAPGKGLEWVGIIYTYDTTYYANWAKGRFTISRDTSKNTVYLQMNSLRAEDTAVYFCARSFSDISDLIKLWGQGTLVTVSS
VL: EIVMTQSPSTLSASVGDRVIITCQASQSLYNNKDLAWYQQKPGKAPKLLIYEASKLASGVPSRFSGSGSGAEFTLTISSLQPDDFATYYCLGEFSCGSGDCLAFGQGTKLTVL
notes: MYT9797 HC variant; captured via anti-human Fc
B2: MYT11361 (antibody, V domains shown)
VH: B1 VH with H34V, W62H
VL: B1 VL
notes: as for B1
B3: MYT11358 (antibody, V domains shown)
VH: B1 VH with H34V, Y59H
VL: B1 VL
notes: as for B1
B4: MYT11379 (antibody, V domains shown)
VH: B1 VH with D28A, H34V
VL: B1 VL
notes: MYT9797 HC alanine variant; captured via anti-human Fc
B5: MYT11386 (antibody, V domains shown)
VH: B1 VH with H34V
VL: B1 VL with Q27H
notes: MYT9797 LC variant; captured via anti-human Fc
B6: MYT11366 (antibody, V domains shown)
VH: B1 VH with H34V, R97H
VL: B1 VL
notes: as for B1
B7: MYT11383 (antibody, V domains shown)
VH: B1 VH with H34V
VL: B1 VL with Q24H
notes: as for B5
B8: MYT11368 (antibody, V domains shown)
VH: B1 VH with H34V, F99H
VL: B1 VL
notes: as for B1
B9: MYT11400 (antibody, V domains shown)
VH: B1 VH with H34V
VL: B1 VL with L56H
notes: as for B5
B10: MYT11413 (antibody, V domains shown)
VH: B1 VH with H34V
VL: B1 VL with A103H
notes: as for B5
B11: MYT11391 (antibody, V domains shown)
VH: B1 VH with H34V
VL: B1 VL with N32H
notes: as for B5
B12: MYT11362 (antibody, V domains shown)
VH: B1 VH with H34V, A63H
VL: B1 VL
notes: as for B1
B13: MYT11402 (antibody, V domains shown)
VH: B1 VH with H34V
VL: B1 VL with S58H
notes: as for B5
B14: MYT11348 (antibody, V domains shown)
VH: B1 VH with H34V, I35H
VL: B1 VL
notes: as for B1
B15: MYT11420 (antibody, V domains shown)
VH: B1 VH with H34V
VL: B1 VL with D100A
notes: MYT9797 LC alanine variant; captured via anti-human Fc
B16: MYT11377 (antibody, V domains shown)
VH: B1 VH with H34V, L108H
VL: B1 VL
notes: as for B1
B17: MYT11399 (antibody, V domains shown)
VH: B1 VH with H34V
VL: B1 VL with K55H
notes: as for B5
B18: MYT11403 (antibody, V domains shown)
VH: B1 VH with H34V
VL: B1 VL with L91H
notes: as for B5
B19: MYT11364 (antibody, V domains shown)
VH: B1 VH with H34V, G65H
VL: B1 VL
notes: as for B1
B20: MYT11385 (antibody, V domains shown)
VH: B1 VH with H34V
VL: B1 VL with S26H
notes: as for B5
B21: MYT11419 (antibody, V domains shown)
VH: B1 VH with H34V
VL: B1 VL with E93A
notes: as for B15
B22: MYT11414 (antibody, V domains shown)
VH: B1 VH with H34V
VL: B1 VL with T111E, V112I, L113K
notes: captured via anti-human Fc
B23: MYT11387 (antibody, V domains shown)
VH: B1 VH with H34V
VL: B1 VL with S28H
notes: as for B5
B24: MYT11359 (antibody, V domains shown)
VH: B1 VH with H34V, A60H
VL: B1 VL
notes: as for B1
B25: MYT11350 (antibody, V domains shown)
VH: B1 VH with H34V, I51H
VL: B1 VL
notes: as for B1
B26: MYT11408 (antibody, V domains shown)
VH: B1 VH with H34V
VL: B1 VL with G97H
notes: as for B5
B27: MYT11401 (antibody, V domains shown)
VH: B1 VH with H34V
VL: B1 VL with A57H
notes: as for B5
B28: MYT11375 (antibody, V domains shown)
VH: B1 VH with H34V, I106H
VL: B1 VL
notes: as for B1
B29: MYT11360 (antibody, V domains shown)
VH: B1 VH with H34V, N61H
VL: B1 VL
notes: as for B1
B30: MYT10885 (antibody, V domains shown)
VH: EVQLVESGGGLVQPGGSLRLSCTASHFSLSNYVMNWVRQAPGKGLEWVGIIDSSGSTYYASWAKGRFTISRDTSKNTVYLQMNSLRAEDTAVYFCARGLYLWGQGTLVTVSS
VL: EIVMTQSPSTLSASVGDRVIITCQSSQSVYNNNLLAWYQQKPGKAPKLLIYYTSNLASGVPSRFSGSGSGAEFTLTISSLQPDDFATYYCQGGYNGNIYAFGQGTKLTVL
notes: MYT9345 variant, His at VH pos 26 (H1 01)
B31: MYT10893 (antibody, V domains shown)
VH: B30 VH with H26G, M34H
VL: B30 VL
notes: MYT9345 variant, His at VH pos 34 (H1 09)
B32: MYT10901 (antibody, V domains shown)
VH: B30 VH with H26G, S56H
VL: B30 VL
notes: MYT9345 variant, His at VH pos 56 (H2 07)
B33: MYT10904 (antibody, V domains shown)
VH: B30 VH with H26G, Y59H
VL: B30 VL
notes: MYT9345 variant, His at VH pos 59 (H2 10)
B34: MYT10894 (antibody, V domains shown)
VH: B30 VH with H26G, N35H
VL: B30 VL
notes: MYT9345 variant, His at VH pos 35 (H1 10)
B35: MYT10886 (antibody, V domains shown)
VH: B30 VH with H26G, F27H
VL: B30 VL
notes: MYT9345 variant, His at VH pos 27 (H1 02)
B36: MYT10902 (antibody, V domains shown)
VH: B30 VH with H26G, T57H
VL: B30 VL
notes: MYT9345 variant, His at VH pos 57 (H2 08)
B37: MYT10900 (antibody, V domains shown)
VH: B30 VH with H26G, G55H
VL: B30 VL
notes: MYT9345 variant, His at VH pos 55 (H2 06)
B38: MYT10887 (antibody, V domains shown)
VH: B30 VH with H26G, S28H
VL: B30 VL
notes: MYT9345 variant, His at VH pos 28 (H1 03)
B39: MYT10890 (antibody, V domains shown)
VH: B30 VH with H26G, N31H
VL: B30 VL
notes: MYT9345 variant, His at VH pos 31 (H1 06)

The binders below were run against T1, Human PTK7 Protein, His Tag (Acro …) (assay: BLI, antibody on anti-human Fc sensor, 50 nM PTK7 at pH 7.4, dissociation at pH 7.4 or 5.4; 2 = substantially similar binding relative to parent).

binding result | Binder
binds | B1
binds | B2
binds | B3
binds | B4
binds | B5
binds | B6
binds | B7
binds | B8
binds | B9
binds | B10
binds | B11
binds | B12
binds | B13
binds | B14
binds | B15
binds | B16
binds | B17
binds | B18
binds | B19
binds | B20
binds | B21
binds | B22
binds | B23
binds | B24
binds | B25
binds | B26
binds | B27
binds | B28
binds | B29

These binders were tested against T2, Human PTK7 Protein, His Tag, Acro … (assay: BLI (Octet), antibody on anti-human Fc sensor, 50 nM PTK7 at pH 7.4, dissociation at pH 7.4 or 5.4; 2 = substantially similar binding relative to parent).

binding result | Binder
binds | B30
binds | B31
binds | B32
binds | B33
binds | B34
binds | B35
binds | B36
binds | B37
binds | B38
binds | B39
